Assay results taken from US20240117018A1.

How the values were obtained:
Experiment in all cases: cell-based or functional assay
[1] = molecular target: HIV-1 Env of pseudovirus CNE19 (HIV-1)
[2] = molecular target: HIV-1 Env of pseudovirus CNE30 (HIV-1)
[3] = molecular target: HIV-1 Env of pseudovirus Q769.d22 (HIV-1)
[4] = molecular target: HIV-1 Env of pseudovirus 1394C9G1(Rev-) (HIV-1)
[5] = molecular target: HIV-1 Env of pseudovirus THRO4156.18 (HIV-1)
[6] = molecular target: HIV-1 Env of pseudovirus 6535.3 (HIV-1)
[7] = molecular target: HIV-1 Env of pseudovirus HIV-16055-2.3 (HIV-1)
[8] = molecular target: HIV-1 Env of pseudovirus Du156.12 (HIV-1)
[9] = molecular target: HIV-1 Env of pseudovirus ZM247v1(Rev-) (HIV-1)
[10] = molecular target: HIV-1 Env of pseudovirus WITO4160.33 (HIV-1)
[11] = molecular target: HIV-1 Env of pseudovirus 3365.v2.c2 (HIV-1)
[12] = molecular target: HIV-1 Env of pseudovirus Q23.17 (HIV-1)
[13] = molecular target: HIV-1 Env of pseudovirus CNE21 (HIV-1)
[14] = molecular target: HIV-1 Env of pseudovirus Ce1172_H1 (HIV-1)
[15] = molecular target: HIV-1 Env of pseudovirus 191084 B7-19 (HIV-1)
[16] = molecular target: HIV-1 Env of pseudovirus CAAN5342.A2 (HIV-1)
[17] = molecular target: HIV-1 Env of pseudovirus Ce1176_A3 (HIV-1)
[18] = molecular target: HIV-1 Env of pseudovirus 1054_07_TC4_1499 (HIV-1)
[19] = molecular target: HIV-1 Env of pseudovirus 246F C1G (HIV-1)
[20] = molecular target: HIV-1 Env of pseudovirus SC05_8C11_2344 (HIV-1)
[21] = molecular target: HIV-1 Env of pseudovirus SC422661.8 (HIV-1)
[22] = molecular target: HIV-1 Env of pseudovirus Ce703010054_2A2 (HIV-1)
[23] = molecular target: HIV-1 Env of pseudovirus HIV-16845-2.22 (HIV-1)
[24] = molecular target: HIV-1 Env of pseudovirus 928-28 (HIV-1)
[25] = molecular target: HIV-1 Env of pseudovirus Ce0682_E4 (HIV-1)
[26] = molecular target: HIV-1 Env of pseudovirus CAP210.2.00.E8 (HIV-1)
[27] = molecular target: HIV-1 Env of pseudovirus TRO.11 (HIV-1)
[28] = molecular target: HIV-1 Env of pseudovirus PVO.4 (HIV-1)

## 8ANC195 (antibody)
[1]
  IC50: 0.29 µg/mL
  IC80: 1.73 µg/mL
[2]
  IC50: 7.52 µg/mL
  IC80: 40.5 µg/mL
[3]
  IC50: 0.26 µg/mL
  IC80: 1.2 µg/mL
[4]
  IC50: > 50 µg/mL
  IC80: > 50 µg/mL
[5]
  IC50: > 50 µg/mL
  IC80: > 50 µg/mL
[6]
  IC50: 0.2 µg/mL
  IC80: 0.91 µg/mL
[7]
  IC50: 15.3 µg/mL
  IC80: > 50 µg/mL
[8]
  IC50: 0.22 µg/mL
  IC80: 1.56 µg/mL
[9]
  IC50: 3.41 µg/mL
  IC80: 25.1 µg/mL
[10]
  IC50: > 50 µg/mL
  IC80: > 50 µg/mL
[11]
  IC50: > 30 µg/mL
  IC80: > 30 µg/mL
[12]
  IC50: 2.55 µg/mL
  IC80: 2.55 µg/mL
[13]
  IC50: 0.27 µg/mL
  IC80: 1.52 µg/mL
[14]
  IC50: 42.3 µg/mL
  IC80: > 50 µg/mL
[15]
  IC50: > 50 µg/mL
  IC80: > 50 µg/mL
[16]
  IC50: > 50 µg/mL
  IC80: > 50 µg/mL
[17]
  IC50: 4.45 µg/mL
  IC80: 35.2 µg/mL
[18]
  IC50: 1.02 µg/mL
  IC80: 6.75 µg/mL
[19]
  IC50: 12.8 µg/mL
  IC80: > 50 µg/mL
[20]
  IC50: 0.47 µg/mL
  IC80: 3.06 µg/mL
[21]
  IC50: 0.29 µg/mL
  IC80: 4.67 µg/mL
[22]
  IC50: 13.6 µg/mL
  IC80: > 50 µg/mL
[23]
  IC50: 3.3 µg/mL
  IC80: 20.1 µg/mL
[24]
  IC50: > 50 µg/mL
  IC80: > 50 µg/mL
[25]
  IC50: 0.2 µg/mL
  IC80: 1.29 µg/mL
[26]
  IC50: > 50 µg/mL
  IC80: > 50 µg/mL
[27]
  IC50: 0.18 µg/mL
  IC80: 0.89 µg/mL
[28]
  IC50: 0.52 µg/mL
  IC80: 1.87 µg/mL

## NIH 45-46 (antibody)
[1]
  IC50: 0.07 µg/mL
  IC80: 0.37 µg/mL
[2]
  IC50: 0.34 µg/mL
  IC80: 1.48 µg/mL
[3]
  IC50: 0.01 µg/mL
  IC80: 0.04 µg/mL
[4]
  IC50: 0.09 µg/mL
  IC80: 0.38 µg/mL
[5]
  IC50: 1.59 µg/mL
  IC80: 6.02 µg/mL
[6]
  IC50: 0.14 µg/mL
  IC80: 0.28 µg/mL
[7]
  IC50: 0.02 µg/mL
  IC80: 0.06 µg/mL
[8]
  IC50: 0.01 µg/mL
  IC80: 0.05 µg/mL
[9]
  IC50: 1.64 µg/mL
  IC80: > 50 µg/mL
[10]
  IC50: 0.01 µg/mL
  IC80: 0.08 µg/mL
[11]
  IC50: 0.11 µg/mL
  IC80: 0.11 µg/mL
[12]
  IC50: 0.14 µg/mL
  IC80: 0.6 µg/mL
[13]
  IC50: 7.53 µg/mL
  IC80: > 50 µg/mL
[14]
  IC50: > 50 µg/mL
  IC80: > 50 µg/mL
[15]
  IC50: 0.02 µg/mL
  IC80: 0.07 µg/mL
[16]
  IC50: 0.11 µg/mL
  IC80: 0.33 µg/mL
[17]
  IC50: 1.29 µg/mL
  IC80: 5.55 µg/mL
[18]
  IC50: 0.07 µg/mL
  IC80: 0.61 µg/mL
[19]
  IC50: > 50 µg/mL
  IC80: > 50 µg/mL
[20]
  IC50: 0.14 µg/mL
  IC80: 0.38 µg/mL
[21]
  IC50: 0.01 µg/mL
  IC80: 0.07 µg/mL
[22]
  IC50: 0.22 µg/mL
  IC80: 0.97 µg/mL
[23]
  IC50: 2.05 µg/mL
  IC80: 12.1 µg/mL
[24]
  IC50: 0.1 µg/mL
  IC80: 0.39 µg/mL
[25]
  IC50: 0.07 µg/mL
  IC80: 0.25 µg/mL
[26]
  IC50: > 50 µg/mL
  IC80: > 50 µg/mL
[27]
  IC50: 1.9 µg/mL
  IC80: 9.56 µg/mL
[28]
  IC50: 0.17 µg/mL
  IC80: 0.47 µg/mL

## 3BNC117 (antibody)
[1]
  IC50: 0.02 µg/mL
  IC80: 0.08 µg/mL
[2]
  IC50: 0.26 µg/mL
  IC80: 0.85 µg/mL
[3]
  IC50: 0.01 µg/mL
  IC80: 0.04 µg/mL
[4]
  IC50: > 50 µg/mL
  IC80: > 50 µg/mL
[5]
  IC50: 1.76 µg/mL
  IC80: 10.1 µg/mL
[6]
  IC50: 0.55 µg/mL
  IC80: 2.44 µg/mL
[7]
  IC50: 5.6 µg/mL
  IC80: > 50 µg/mL
[8]
  IC50: 0.02 µg/mL
  IC80: 0.08 µg/mL
[9]
  IC50: > 50 µg/mL
  IC80: > 50 µg/mL
[10]
  IC50: 0.01 µg/mL
  IC80: 0.04 µg/mL
[11]
  IC50: 0.03 µg/mL
  IC80: 0.1 µg/mL
[12]
  IC50: 0.005 µg/mL
  IC80: 0.02 µg/mL
[13]
  IC50: 45.4 µg/mL
  IC80: > 50 µg/mL
[14]
  IC50: > 50 µg/mL
  IC80: > 50 µg/mL
[15]
  IC50: 0.07 µg/mL
  IC80: 0.23 µg/mL
[16]
  IC50: 0.42 µg/mL
  IC80: 1.51 µg/mL
[17]
  IC50: 0.22 µg/mL
  IC80: 0.75 µg/mL
[18]
  IC50: 0.07 µg/mL
  IC80: 0.49 µg/mL
[19]
  IC50: 19.3 µg/mL
  IC80: > 50 µg/mL
[20]
  IC50: 0.15 µg/mL
  IC80: 0.51 µg/mL
[21]
  IC50: 0.02 µg/mL
  IC80: 0.08 µg/mL
[22]
  IC50: 0.37 µg/mL
  IC80: 1.67 µg/mL
[23]
  IC50: 27.5 µg/mL
  IC80: > 50 µg/mL
[24]
  IC50: 0.15 µg/mL
  IC80: 0.55 µg/mL
[25]
  IC50: 0.03 µg/mL
  IC80: 0.15 µg/mL
[26]
  IC50: 17.2 µg/mL
  IC80: > 50 µg/mL
[27]
  IC50: < 0.09 µg/mL
  IC80: < 0.09 µg/mL
[28]
  IC50: < 0.09 µg/mL
  IC80: 0.19 µg/mL

## VRC07 (antibody)
[1]
  IC50: 0.092 µg/mL
  IC80: 0.232 µg/mL
[2]
  IC50: 0.326 µg/mL
  IC80: 1.08 µg/mL
[3]
  IC50: 0.018 µg/mL
  IC80: 0.087 µg/mL
[4]
  IC50: 0.112 µg/mL
  IC80: 0.368 µg/mL
[5]
  IC50: 2.4 µg/mL
  IC80: 12.2 µg/mL
[6]
  IC50: 0.169 µg/mL
  IC80: 0.517 µg/mL
[7]
  IC50: 0.025 µg/mL
  IC80: 0.135 µg/mL
[8]
  IC50: 0.041 µg/mL
  IC80: 0.149 µg/mL
[9]
  IC50: 0.041 µg/mL
  IC80: 0.189 µg/mL
[10]
  IC50: 0.042 µg/mL
  IC80: 0.193 µg/mL
[11]
  IC50: 0.038 µg/mL
  IC80: 0.109 µg/mL
[12]
  IC50: 0.081 µg/mL
  IC80: 0.236 µg/mL
[13]
  IC50: 0.05 µg/mL
  IC80: 0.222 µg/mL
[14]
  IC50: > 50 µg/mL
  IC80: > 50 µg/mL
[15]
  IC50: 0.061 µg/mL
  IC80: 0.209 µg/mL
[16]
  IC50: 0.307 µg/mL
  IC80: 1.05 µg/mL
[17]
  IC50: 0.52 µg/mL
  IC80: 2.6 µg/mL
[18]
  IC50: 0.239 µg/mL
  IC80: 1.46 µg/mL
[19]
  IC50: 0.286 µg/mL
  IC80: 1.04 µg/mL
[20]
  IC50: 0.133 µg/mL
  IC80: 0.401 µg/mL
[21]
  IC50: 0.054 µg/mL
  IC80: 0.175 µg/mL
[22]
  IC50: 0.19 µg/mL
  IC80: 0.912 µg/mL
[23]
  IC50: 1.21 µg/mL
  IC80: 6.15 µg/mL
[24]
  IC50: 0.278 µg/mL
  IC80: 0.957 µg/mL
[25]
  IC50: 0.039 µg/mL
  IC80: 0.239 µg/mL
[26]
  IC50: > 50 µg/mL
  IC80: > 50 µg/mL
[27]
  IC50: 0.132 µg/mL
  IC80: 0.456 µg/mL
[28]
  IC50: 0.063 µg/mL
  IC80: 0.226 µg/mL
